Assay [1] concerns the target T1, monkey LAG-3 on cells (HEK293-cLAG-3 stable cell line) (monkey, UniProt P18627 24-525 (human entry)).
T1 construct: Full-length monkey (Chinese monkey) LAG-3 gene expressed on HEK293 cells
T1 chain: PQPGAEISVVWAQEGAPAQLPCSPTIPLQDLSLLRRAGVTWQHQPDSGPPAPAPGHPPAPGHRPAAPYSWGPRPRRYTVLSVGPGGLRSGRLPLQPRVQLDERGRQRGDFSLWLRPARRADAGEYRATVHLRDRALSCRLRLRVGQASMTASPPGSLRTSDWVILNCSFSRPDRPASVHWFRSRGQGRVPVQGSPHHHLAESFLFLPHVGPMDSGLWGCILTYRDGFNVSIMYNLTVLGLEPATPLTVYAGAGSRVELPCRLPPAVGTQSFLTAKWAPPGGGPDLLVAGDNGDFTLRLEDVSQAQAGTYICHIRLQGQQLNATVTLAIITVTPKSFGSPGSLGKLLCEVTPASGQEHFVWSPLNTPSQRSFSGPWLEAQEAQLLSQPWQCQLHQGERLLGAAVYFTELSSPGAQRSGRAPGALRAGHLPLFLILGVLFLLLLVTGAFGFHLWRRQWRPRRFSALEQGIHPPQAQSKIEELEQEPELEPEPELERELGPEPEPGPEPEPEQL
Briefly: FACS, HEK293-cLAG-3, antibody 200.000 nM. The source says: The pIRES plasmid with the monkey-derived full-length gene was transfected into the HEK293 cell line to construct a HEK293 stable cell line containing monkey LAG-3 (herein referred to as HEK293-cLAG-3 stable cell line). The HEK293-hLAG-3 stable cell line and HEK293-cLAG-3 stable cell line were expanded in a T-75 cell culture flask to a 90% confluence. The medium was aspirated, and the cells were washed with HBSS (Hanks' Balanced Salt Solution) 1-2 times, then treated with a enzyme-free cell dissociation fluid (Versene solution: Life technology) and the cells were collected. The cells were washed with HBSS buffer for 1-2 times. After counted, the cells were diluted with HBSS to 1-2×10⁶ cells per ml, added with 1% goat serum blocking solution, incubated on ice for 20-30 minutes, and then washed with HBSS for 2 times by centrifugation. The collected cells were suspended in the FACS buffer (HBSS+1% BSA) to 2×10⁶ cells/ml, added as 100 microliters per well to a 96-well FACS reaction plate, added with 100 microliters per well of the antibody sample to be tested, incubated on ice for 1-2 hours. The plate was washed twice with the FACS buffer by centrifugation, added with 100 microliters of fluorescent (Alexa 488)-labeled secondary antibodies per well, and incubated on ice for 0.5-1.0 hours. The plate was washed 2-3 times with FACS buffer by centrifugation, added with 100 μl fixative solution (4% Paraformaldehyde) per well to suspend the cells. 5-10 minutes later, it was washed 1-2 times with FACS buffer by centrifugation. The cells were suspended with 100 microliters of FACS buffer, FACS (FACSCalibur, BD) was used for detection and the results were analyzed.

Assay [2] addresses T2, hFc tagged monkey LAG-3 protein (cLAG-3-hFc protein) (monkey; human).
T2 construct: Made in HEK293 cells; also called monkey LAG-3 extracellular domain protein; not shown: human IgG Fc fragment (hFc) of the pCpC vector
T2 chain: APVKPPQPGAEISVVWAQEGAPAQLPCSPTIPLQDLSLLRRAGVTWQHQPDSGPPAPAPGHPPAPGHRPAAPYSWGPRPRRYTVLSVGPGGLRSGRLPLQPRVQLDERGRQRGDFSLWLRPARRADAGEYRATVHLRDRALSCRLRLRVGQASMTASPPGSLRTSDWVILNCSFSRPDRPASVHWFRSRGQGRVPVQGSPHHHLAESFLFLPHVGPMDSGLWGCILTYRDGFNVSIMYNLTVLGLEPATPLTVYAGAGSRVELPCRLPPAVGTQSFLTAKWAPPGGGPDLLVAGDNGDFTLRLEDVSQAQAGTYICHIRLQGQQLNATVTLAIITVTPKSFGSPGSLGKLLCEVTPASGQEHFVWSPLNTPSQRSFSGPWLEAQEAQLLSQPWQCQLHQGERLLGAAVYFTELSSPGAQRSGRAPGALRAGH
Briefly: ELISA, cLAG-3-hFc coated; 0.0007 nM. The method, then:
(§1) The plate was sealed with plastic film and incubated overnight at 4° C. The plate was washed 2 times with the plate washing solution (PBS+0.01% Tween20) on the next day, and added with the blocking solution (PBS+0.01% Tween20+1% BSA) and blocked at room temperature for 1-2 hours. The blocking solution was poured out, and the plate was added with 50-100 μl of the antibody sample to be tested to each well, incubated at 37° C. for 1-2 hours, and washed 2-3 times with a plate washing solution (PBS+0.01% Tween20). HRP (horseradish peroxidase) labeled secondary antibody was added, and the plate was incubated at 37° C. for 1-2 hours, and washed 2-3 times with a plate washing solution (PBS+0.01% Tween20). 100 μl of TMB substrate was added to each well. After incubated at room temperature for 15-30 minutes, the plate was added with 100 μl of stop solution (1.0N HCl) to each well.
Background: An ELISA detects its analyte on a solid surface through an enzyme-linked reagent.

The target of assay [3] is T3, mouse LAG-3 protein with hFc tag (mLAG-3-hFc protein) (mouse; human, UniProt Q61790 24-442).
T3 construct: Made in HEK293 cells; also called mouse LAG-3 extracellular domain protein; not shown: human IgG Fc fragment (hFc) of the pCpC vector
T3 sequence: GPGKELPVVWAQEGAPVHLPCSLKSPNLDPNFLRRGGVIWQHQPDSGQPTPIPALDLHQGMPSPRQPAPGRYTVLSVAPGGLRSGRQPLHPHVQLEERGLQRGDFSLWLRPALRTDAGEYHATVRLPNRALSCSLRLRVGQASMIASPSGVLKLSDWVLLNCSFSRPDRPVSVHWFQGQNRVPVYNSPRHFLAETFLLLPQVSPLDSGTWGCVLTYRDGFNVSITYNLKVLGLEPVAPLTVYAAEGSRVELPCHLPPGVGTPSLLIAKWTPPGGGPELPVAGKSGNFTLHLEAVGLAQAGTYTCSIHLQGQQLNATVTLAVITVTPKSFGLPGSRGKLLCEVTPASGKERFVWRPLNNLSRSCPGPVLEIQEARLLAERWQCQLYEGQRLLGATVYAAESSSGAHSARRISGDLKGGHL
The experiment in a line: ELISA, mLAG-3-hFc coated; 0.0067 nM. How it is done: as §1

Where a chain is given by its changes, count along the chain named.

B1: 105F1E10 mouse-human chimeric antibody (antibody, V domains shown)
VH: EVQLQQSGPELVKPGASVKMSCRASGYTFTDFKMHWMKQSHGKSLEWIGYIAPNNGGTAYNQKFRGKATLTVNESSNTAYMELRSLTSEDSAVYYCVDWDDVDYWGQGTTLTVSS
VL: DIKMTQSPSSMYASLGERVTITCKASQDINSYLSWFQQKSGKSPKTLIYRANRLVDGVPSRFSGSGSGQDYSLTISSLEYEDMGIYYCLQYVEFPLTFGAGTKLELK
notes: also called mAb009-105F1E10
For B1, the Mean fluorescence intensity in assay [1] came to 94.5.

B2: 405B8H3 (LAG-3 mouse-human chimeric antibody) (antibody, V domains shown)
VH: QVQLQQSGAELVRPGASVTLSCKASGYTFTDYEMHWVKQTPVHGLEWIGATDPETGNSAYNQKFKGKAIMTADKSSSTAYMELRSLTSEDSAVYYCISTGWNDWGQGTSLTVSS
VL: B1 VL with S40P, N52D, V55L, E81G, V92D, L96Y, A100G, L106I
notes: also called mouse-human chimeric antibody 405B8H3
With B2, the OD450 worked out at 0.21 OD450 in assay [2] and 0.08 OD450 in assay [3].

B3: 105F1E10 (LAG-3 mouse-human chimeric antibody) (antibody, V domains shown)
VH: B1 VH
VL: B1 VL
Regarding B3, the OD450 in assay [2] worked out at 0.16 OD450; in assay [3], 0.09 OD450.

B4: 405B8H3 mouse-human chimeric antibody (antibody, V domains shown)
VH: B2 VH
VL: B1 VL with S40P, N52D, V55L, E81G, V92D, L96Y, A100G, L106I
notes: also called mAb103-405B8H3
The molecule B4 returned a Mean fluorescence intensity in assay [1] of 108.

B5: 409D4E10 mouse-human chimeric antibody (antibody, V domains shown)
VH: B2 VH with Y27N, G56D, S58T, M70L, A72T, S98T, T99S
VL: B1 VL with S40P, V55L, V92N, L96Y, A100G, L106I
notes: also called mAb112-409D4E10
B5 came in with a Mean fluorescence intensity in assay [1] of 103.

B6: 409D4E10 (LAG-3 mouse-human chimeric antibody) (antibody, V domains shown)
VH: B2 VH with Y27N, G56D, S58T, M70L, A72T, S98T, T99S
VL: B1 VL with S40P, V55L, V92N, L96Y, A100G, L106I
With B6, the OD450 in assay [2] was 0.27 OD450; in assay [3] it was 0.09 OD450.

B7: 409B11E12 mouse-human chimeric antibody (antibody, V domains shown)
VH: B2 VH with P41T, G56S, N57Y, M70L, S98A
VL: B1 VL with I2L, S40P, V55L, V92D, L96Y, A100G, L106I
notes: also called mAb104-409B11E12
B7 yielded a Mean fluorescence intensity in assay [1] of 114.

B8: 409B11E12 (LAG-3 mouse-human chimeric antibody) (antibody, V domains shown)
VH: B2 VH with P41T, G56S, N57Y, M70L, S98A
VL: B1 VL with I2L, S40P, V55L, V92D, L96Y, A100G, L106I
On to B8, for which the figures for the OD450 in assay [2] and in assay [3] were 0.17 OD450 and 0.07 OD450, respectively.

B9: 556F6B8 mouse-human chimeric antibody (antibody, V domains shown)
VH: RVQLKQSGPGLVQPSQSLSITCTVSGFSLIKYGVHWVRQSPGEGLEWLGVIWRGGITDYNAAFMSRLSITKDNSKSQVFFKMNSLQADDTAIYYCAKWDGPLAMDYWGQGTSVTVSS
VL: DIVMTQSHKFLSTSVGDRVSITCKASQDVGTTVAWYQQKPGQSPKLLIYWASTRHTGVPDRFTGSGSGTDFTLTISNVQSEDLADYFCQQYSSYPYTFGGGTKLEIK
notes: also called mAb123-556F6B8; 556F8B8
Molecule B9 registered a Mean fluorescence intensity in assay [1] of 90.5.

B10: 556F6B8 (LAG-3 mouse-human chimeric antibody) (antibody, V domains shown)
VH: B9 VH
VL: B9 VL
notes: also called 556F8B8
B10: the OD450 in assay [2] was 0.21 OD450; in assay [3] it was 0.14 OD450.

(Values after patent US20210155689A1 (SHANGHAI PHARMAEXPLORER, published 2021).)
